In US20190177410A1:
No end group written: not given here.

Assays:
[1] = molecular target: full-length human APLNR (hAPLNR) (human) (UniProt P35414); assay: FACS on HEK293/CRE-luc/hAPLNR cells
[2] = molecular target: full-length human APLNR (hAPLNR) (human) (UniProt P35414); assay: cell-based or functional assay
[3] = molecular target: human Apelin receptor (hAPLNR) of PathHunter eXpress AGTRL1 CHO-K1 beta-Arrestin cells (human) (UniProt P35414); assay: cell-based or functional assay
[4] = molecular target: T1, full length cynomolgus APLNR (MfAPLNR) (cynomolgus (Macaca fascicularis)); assay: FACS on HEK293/CRE-luc/MfAPLNR cells
T1 sequence: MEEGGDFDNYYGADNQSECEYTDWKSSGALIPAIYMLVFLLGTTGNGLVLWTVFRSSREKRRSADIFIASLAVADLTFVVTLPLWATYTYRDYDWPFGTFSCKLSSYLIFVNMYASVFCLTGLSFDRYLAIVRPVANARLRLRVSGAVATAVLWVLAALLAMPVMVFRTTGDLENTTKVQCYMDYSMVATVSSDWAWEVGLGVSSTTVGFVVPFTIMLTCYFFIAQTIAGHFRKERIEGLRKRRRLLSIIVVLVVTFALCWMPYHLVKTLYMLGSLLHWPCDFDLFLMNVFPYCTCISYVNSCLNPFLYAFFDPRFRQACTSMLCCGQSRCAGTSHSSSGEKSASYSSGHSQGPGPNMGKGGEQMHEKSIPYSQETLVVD

With QRPRLSHKGPMPFGGGGSGGGGSGGGGS-{VH of anti‑myc 9E10 antibody} (antibody, part only; not given: anti-myc antibody chains, part only, ends and bridges not checked) [Anti-myc 9E10 Nter VH fusion with (G4S)3 linker (Apelin fused to an irrelevant anti-myc antibody)] the Binding Ratio of Geom. Mean to Unstained Cells [1] was 12 fold, the % Activation at 100 nM mAb (7.5 uM Forskolin), CRE-luc [2] was 53% and the % Activation at 100 nM mAb (10 uM Forskolin), CRE-luc [2] was 37%. For the same binder, the EC50 [M] (7.5 uM Forskolin), CRE-luc [2] was 1.1e-08 M, the EC50 [M] (10 uM Forskolin), CRE-luc [2] was greater than 1e-07 M and the % Activation at 500 nM antibody or Apelin-antibody fusion, PathHunter beta-Arrestin assay [3] was 6%. For the same binder, the Binding Ratio of Geom. Mean to Unstained Cells [4] was 3 fold.
